Consider three substances from PMC5460766.

Common to all, as to assay: ITC
(In general: Isothermal titration calorimetry measures the heat released or taken up as one component is titrated into another.)

The target of test [1] is NDD(MlnD)+MlnKR4 (Bacillus amyloliquefaciens FZB42) (UniProt A7Z473).
Test [2] deals with NDD(MlnG)+MlnKR9 (Bacillus amyloliquefaciens FZB42) (UniProt A7Z476).
Test [3] has as its target NDD(MlnE)+MlnKR6 (Bacillus amyloliquefaciens FZB42) (UniProt A7Z474).

As for “MlnDH4+CDD(MlnC) (from UniProt A7Z472 1-1590) (domain or fragment)”, the Kd (commonly the equilibrium constant for the complex coming apart) in test [1] is 1800 nM.
Substance “MlnDH9+CDD(MlnF) (from UniProt A7Z475 1-1903) (domain or fragment)” gave a Kd in test [2] of 9000 nM.
As for “MlnKS6+CDD(MlnD) (from UniProt A7Z473 1-2902) (domain or fragment)”, the Kd in test [3] was 800 nM.
